Test results as given in patent US20220267427A1.

Legend:
[1] = target: fCK18 in apoptosis-induced HepG2 cell culture supernatant (human) (UniProt P05783); assay: commercial fCK18 kit ELISA with M30 conjugate; fCK18 6.79 ng/mL
[2] = target: fCK18 in apoptosis-induced HepG2 cell culture supernatant (human) (UniProt P05783); assay: commercial fCK18 kit ELISA with M30 conjugate; fCK18 0.74 ng/mL
[3] = target: fCK18 in apoptosis-induced HepG2 cell culture supernatant (human) (UniProt P05783); assay: commercial fCK18 kit ELISA with M30 conjugate; fCK18 0.09 ng/mL
[4] = target: fCK18 in apoptosis-induced HepG2 cell culture supernatant (human) (UniProt P05783); assay: commercial fCK18 kit ELISA with M30 conjugate; fCK18 20.27 ng/mL
[5] = target: fCK18 in apoptosis-induced HepG2 cell culture supernatant (human) (UniProt P05783); assay: commercial fCK18 kit ELISA with M30 conjugate
[6] = target: fCK18 in apoptosis-induced HepG2 cell culture supernatant (human) (UniProt P05783); assay: commercial fCK18 kit ELISA with M30 conjugate; fCK18 60.73 ng/mL
[7] = target: fCK18 in apoptosis-induced HepG2 cell culture supernatant (human) (UniProt P05783); assay: commercial fCK18 kit ELISA with M30 conjugate; fCK18 0.28 ng/mL
[8] = target: fCK18 in apoptosis-induced HepG2 cell culture supernatant (human) (UniProt P05783); assay: commercial fCK18 kit ELISA with M30 conjugate; fCK18 182.28 ng/mL
[9] = target: fCK18 in apoptosis-induced HepG2 cell culture supernatant (human) (UniProt P05783); assay: commercial fCK18 kit ELISA with M30 conjugate; fCK18 2.23 ng/mL

fCK18 in apoptosis-induced HepG2 cell culture supernatant (human), sequence (P05783 239-397): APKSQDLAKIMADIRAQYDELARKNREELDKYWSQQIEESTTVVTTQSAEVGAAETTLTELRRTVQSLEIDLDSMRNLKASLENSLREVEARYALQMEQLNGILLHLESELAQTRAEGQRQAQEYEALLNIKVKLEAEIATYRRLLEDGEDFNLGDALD

S/N ratio [1]: 5.1
S/N ratio [2]: 1.5
S/N ratio [3]: 1.1
S/N ratio [4]: 12.8
fCK18 concentration detectable (S/N ratio of 2 or more) [5]: > 2.23 ng/mL
S/N ratio [6]: 37.5
S/N ratio [7]: 1.2
S/N ratio [8]: 48.3
S/N ratio [9]: 2.4
Substance: M30 antibody
